# Where no end group is shown, it is not given here. [ ]: non-standard residue; d: D form. Nle = CCCC[C@H](N)C(=O)O
# Legend:
# Details in all cases: both partners purified
# [1] = target: T1, plasmepsin 4 from Plasmodium falciparum (Plasmodium falciparum, UniProt Q8IM16 122-449); test: enzyme inhibition kinetics (Ki of competitive inhibition); initial cleavage velocities of a chromogenic peptide substrate at varied inhibitor concentration; plasmepsins pre-incubated in 100 mM sodium formate pH 4.5, 37°C, 5 min to convert zymogen to mature enzyme
# T1 construct: also called PfPM4; source: zymogen converted to mature enzyme at pH 4.5, 37°C, 5 min
# [2] = target: T2, plasmepsin 2 from Plasmodium falciparum (Plasmodium falciparum, UniProt P46925 125-453); test: as above
# T2 construct: also called PfPM2; source: zymogen converted to mature enzyme at pH 4.5, 37°C, 5 min
# [3] = target: T3, plasmepsin 1 from Plasmodium falciparum (Plasmodium falciparum, UniProt P39898 124-452); test: enzyme inhibition kinetics (Ki of competitive inhibition); initial cleavage velocities of a chromogenic peptide substrate at varied inhibitor concentration; mature PfPM1 pre-incubated in 100 mM sodium citrate pH 5.5, 37°C, 3 min
# T3 construct: also called PfPM1
# [4] = target: T4, mature plasmepsin 4 of Plasmodium berghei (PbPM4), auto-matured from semi-proPbPM4 (Plasmodium berghei ANKA); test: enzyme inhibition kinetics (Ki of competitive inhibition); initial cleavage velocities of a chromogenic peptide substrate at varied inhibitor concentration, spectrophotometric; proPbPM4 pre-incubated in 100 mM sodium citrate pH 5.0, 37°C, 5 min; tight-binding or non-tight-binding competitive fit
# T4 construct: also called mature PbPM4; FV plasmepsin 4; source: converted to mature enzyme by 5 min pre-incubation in sodium citrate pH 5.0 at 37°C
Binder,Ki [1] [nM],Ki [2] [nM],Ki [3] [nM],Ki [4] [nM]
"KPYEFRQF (not fully specified (residue 5); printed as KPYEFΨRQF; also: Ψ pseudo-peptide bond between F5 and R6, source: synthetic peptide) [compound 1 (KPYEFΨRQF), peptidomimetic inhibitor designed for PbPM4]",190 ± 19,35000,> 100000,–
"KP[Nle]S[Nle]LQI (also: reduced amide Ψ[CH2-NH] between Nle5 and Leu6) [compound 3 (KPnLSnLΨLQI), peptidomimetic inhibitor designed for PfPM2]",–,–,–,375 ± 54
